B1: mouse anti-IL6R monoclonal antibody 3C2 (antibody, V domains shown)
VH: QVQLQQPGTELVKPGASVKLSCKASGYTFTTYWIHWVKQRPGQGLEWIGEINPSNGRTNYNEHFKSKATLTVDKSSSTASMQLSSLTSADSAVYYCARLNTHYVFDSWGQGTTLTVSS
VL: EIVLTQSPTTMAASPGEKITITCSASSSISSNYLHWYQQKPGFSPKLLIYRTSNLASGVPTHFSGSGSGTSYSLTIGTMEAEDVATYYCQQGSGIPFTFGSGTKLEIK
notes: Mouse hybridoma mAb
B2: mouse anti-IL6R monoclonal antibody 1G1 (antibody, V domains shown)
VH: QVQLQQPGAELVKPGASVKLSCKASGYTFTSYWMHWVKVRPGQGLEWIGEINPTNGRTNYNEDFKSKATLTVESSSSTAYMQFSSLTSEDSAVYYCARLNTHYVFDYWGQGTTLTVSS
VL: B1 VL with T10I, M11L, I21F, A25V, T61A, H62R
notes: Mouse hybridoma mAb
B3: Tocilizumab (antibody, human IgG1, kappa, V domains shown)
VH: QVQLQESGPGLVRPSQTLSLTCTVSGYSITSDHAWSWVRQPPGRGLEWIGYISYSGITTYNPSLKSRVTMLRDTSKNQFSLRLSSVTAADTAVYYCARSLARTTAMDYWGQGSLVTVSS
VL: DIQMTQSPSSLSASVGDRVTITCRASQDISSYLNWYQQKPGKAPKLLIYYTSRLHSGVPSRFSGSGSGTDFTFTISSLQPEDIATYYCQQGNTLPYTFGQGTKVEIKR
notes: In house made; also called benchmark; Actemra
B4: mouse anti-IL6R monoclonal antibody 1A3 (antibody, V domains shown)
VH: QVQLQQPGAELVKPGASVKLSCKASGYTFTSYWMHWVKQRPAQGLEWIGEINPSNGRTNFNEKFKTKATLTVDKSSNTAYMQLSSLTSEDSAVYSCLRLNTHYVFDYWGQGTTLTVSS
VL: B1 VL with Y50S, H62R, E82G
notes: Mouse hybridoma mAb purified on Protein A
B5: mouse anti-IL6R monoclonal antibody 1B5 (antibody, V domains shown)
VH: B2 VH with V39Q, T54S, D63N, E73D, S74K, F83L
VL: B1 VL with T10I, M11L, I21F, A25V, T61A, H62R
notes: Mouse hybridoma mAb
B6: Chimeric 1H7 (antibody, human IgG1, kappa, V domains shown)
VH: B1 VH with T31N, I34M, E46D, S54T, H63N, S80Y, A89E, V116L
VL: EIVLTQSPTTLAASPGEKITFTCSVSSSISSNYLHWYQQKPGFSPKLLISRTSTLASGVPARFSGSGSGTSYSLTIGTMEAEDVATYYCQQGSGIPFTFGSGTKLELKR
notes: Mouse variable regions on human IgG1 / human kappa constant regions; also called chimeric antibody 1H7
B7: mouse anti-IL6R monoclonal antibody 1H7 (antibody, V domains shown)
VH: B1 VH with T31N, I34M, E46D, S54T, H63N, S80Y, A89E, V116L
VL: B1 VL with M11L, I21F, A25V, Y50S, N54T, T61A, H62R, I107L
notes: Mouse hybridoma mAb
B8: humanized antibody hu1H7-V5 (antibody, human IgG1, kappa, V domains shown)
VH: QVQLVQSGAEVKKPGASVKVSCKASGYTFTNYWMHWVRQAPGQGLEWIGEINPTNGRTNYNENFKSRVTLTVDTSTSTVYMELSSLRSEDTAVYYCARLNTHYVFDSWGQGTLVTVSS
VL: EIVLTQSPGTLSLSPGERATLSCSVSSSISSNYLHWYQQKPGLSPRLLISRTSTLASGIPARFSGSGSGTEYTLTISRMQSEDFAVYYCQQGSGIPFTFGQGTKLEIKR
notes: Human IgG1 / kappa
B9: mouse anti-IL6R monoclonal antibody 1H9 (antibody, V domains shown)
VH: QVQLQQPGAELVKPGASVKLSCKASGYTFTSYWMHWVKLRPGQGLEWIGEINPTNGRTNYYEKFKNRATLTADKSSSTAYMQLSSLTFEDSAVYFCAKFHYSRWYFDVWGTGTTVTVSS
VL: DIVMTQSQKFMSTSVGDRVSITCKASQNVGTAVVWYQQKPGQSPKLLINPASNRYTGVPDRFTGSGSGTDFTLTISNMQSEDLADYFCQQYSSYPLTFGAGTKLELK
notes: Mouse hybridoma mAb
B10: mouse anti-IL6R monoclonal antibody 1F7 (antibody, V domains shown)
VH: QVQLQQPGAELVKPGASVKLSCKASDYTFTSYWMHWVKQRPGQGLEWIGEINPSNGRTNYNEKFKNKATLTVDKSSSTAYVQLYSLTSEDSAVYYCARLSIHYVFDYWGQGTTLTVSS
VL: B1 VL with I2L, I21F, Y50S, R51G, T61P, H62R, G77V
notes: Mouse hybridoma mAb
B11: mouse anti-IL6R monoclonal antibody 1D4 (antibody, V domains shown)
VH: B2 VH with E73N, F83L
VL: B1 VL with T10I, M11L, I21F, A25V, T61A, H62R
notes: Mouse hybridoma mAb

As usually defined, the IC50 is the concentration at which inhibition is half-maximal. Low values mean higher potency, high ones lower potency. As usually defined, the EC50 is the concentration at which the effect is half-maximal. A lower EC50 goes with greater potency.

Changes are numbered by the printed parent chain.

The first assay concerns the target T1, human IL6R-Fc protein (human, biotin-labeled in the ELISAs (sites not given)).
T1 construct: In house made; also called biotin-labeled human IL6R-Fc protein
As to the kind of experiment: ligand blocking ELISA: antibody pre-incubated with biotin-labeled human IL6R-Fc, added to plate-coated human IL6 (blocked ligand: human IL6). As to the method: (§1) The next day, anti-IL6R antibodies or controls were diluted with biotin labeled human IL6R-Fc protein (prepared in house, SEQ ID NO: 43, 39.5 ng/ml in 2.5% w/v non-fatty milk in PBST), starting at 100 nM with a 4-fold serial dilution, and incubated at room temperature for 40 minutes. […] Plates were washed for 4 times using wash buffer, and added and incubated with 100 μl/well of streptavidin conjugated HRP (1:10000 dilution in PBST buffer, Jackson ImmunoResearch Laboratories, Inc., Cat #016-030-084) for 40 minutes at 37° C. Plates were washed again using wash buffer. Finally, TMB was added and the reaction was stopped using 1M H₂SO₄. The absorbance was read on a microplate reader using dual wavelength mode with 450 nm for TMB and 630 nm as the reference wavelength, and then the OD (450-630) values were plotted against antibody concentration. Data was analyzed using Graphpad Prism software and IC₅₀ values were reported.
In general terms: An ELISA detects its analyte on a solid surface through an enzyme-linked reagent.
As to B1, the concentration for half-maximal inhibition (IC50) was 0.704 nM.

Consider B2, for which the half-maximal inhibitory concentration (IC50) is about 1.44 nM.

For B3, 2.51 nM corresponded to half-maximal inhibition (IC50).

A further assay concerns the target T2, human IL6R expressed on cell surface (human, UniProt P08887 20-468).
T2 construct: whole, on cells; also called cell surface human IL6R; U266 cells expressing human IL6R
T2 sequence (looked up): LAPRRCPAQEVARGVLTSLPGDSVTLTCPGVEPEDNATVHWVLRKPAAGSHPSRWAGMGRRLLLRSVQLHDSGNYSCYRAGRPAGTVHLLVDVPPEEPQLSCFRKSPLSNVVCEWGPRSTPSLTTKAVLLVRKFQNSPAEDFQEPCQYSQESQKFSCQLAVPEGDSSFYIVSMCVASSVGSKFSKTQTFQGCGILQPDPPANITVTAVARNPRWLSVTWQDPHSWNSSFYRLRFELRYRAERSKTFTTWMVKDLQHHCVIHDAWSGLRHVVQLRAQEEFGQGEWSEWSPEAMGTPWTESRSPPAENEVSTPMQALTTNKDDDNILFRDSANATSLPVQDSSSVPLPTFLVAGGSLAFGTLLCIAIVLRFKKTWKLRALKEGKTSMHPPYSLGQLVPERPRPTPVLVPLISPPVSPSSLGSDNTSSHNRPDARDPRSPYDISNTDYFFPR
As to the kind of experiment: cell-based binding FACS on U266 cells. The procedure:
(§2) The binding activities of the mouse anti-IL6R antibodies to IL6R expressed on cell surface were tested by flow cytometry (FACS). Briefly, human myeloma cells U266 (ATCC® TIB-196™) were harvested from cell culture flasks, washed twice and resuspended in phosphate buffered saline (PBS) containing 2% v/v Fetal Bovine Serum (FACS buffer). 2×10⁵ U266 cells per well were incubated in 96 well-plates with 100 μl of the anti-IL6R antibodies or controls at various concentrations (starting at 40 nM with a 3-fold serial dilution in FACS buffer) for 40 minutes on ice. Cells were washed twice with FACS buffer, and added with 100 μL/well R-Phycoerythrin AffiniPure F(ab′)₂ Fragment Goat Anti-Mouse IgG (H+L) (1:1000 dilution in FACS buffer, Jackson ImmunoResearch Laboratories, Inc., Cat #115-116-146). Following an incubation of 40 minutes at 4° C. in dark, cells were washed three times and resuspended in FACS buffer. Fluorescence was measured using a Becton Dickinson FACS Canto II-HTS equipment. Data was analyzed using Graphpad Prism software and EC₅₀ values were reported.
Turning to B4, the response was half-maximal at 0.229 nM (EC50).

As to B5, the half-maximal effective concentration (EC50) amounted to 0.204 nM.

For the molecule B3, the EC50 came to 1.7 nM.

The target in a further assay is T1, human IL6R-Fc protein. The experiment in a line: ligand blocking ELISA: antibody pre-incubated with biotin-labeled human IL6R-Fc, added to plate-coated human IL6 (blocked ligand: human IL6). The source holds these as a separate data set.
Target sequence in this assay (chain, as listed by the source limits assumed): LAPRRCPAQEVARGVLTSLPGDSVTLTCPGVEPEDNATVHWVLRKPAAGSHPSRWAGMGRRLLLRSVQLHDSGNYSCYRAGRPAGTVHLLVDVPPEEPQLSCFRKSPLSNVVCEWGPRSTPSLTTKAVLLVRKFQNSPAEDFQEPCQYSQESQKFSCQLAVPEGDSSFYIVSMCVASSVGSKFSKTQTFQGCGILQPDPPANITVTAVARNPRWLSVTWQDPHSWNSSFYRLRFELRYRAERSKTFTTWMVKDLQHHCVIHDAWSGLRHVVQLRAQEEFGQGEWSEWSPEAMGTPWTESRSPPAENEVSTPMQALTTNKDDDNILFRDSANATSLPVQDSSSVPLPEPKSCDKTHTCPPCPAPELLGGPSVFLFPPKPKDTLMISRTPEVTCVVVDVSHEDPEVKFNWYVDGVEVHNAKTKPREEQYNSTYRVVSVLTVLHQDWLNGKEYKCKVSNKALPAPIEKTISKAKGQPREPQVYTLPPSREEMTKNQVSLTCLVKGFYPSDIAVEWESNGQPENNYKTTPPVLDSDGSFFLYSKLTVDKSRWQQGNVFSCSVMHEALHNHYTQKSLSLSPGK
Molecule B6 returned an IC50 of 0.261 nM.

B7 yielded an IC50 of 0.231 nM.

In turn, B5 showed an IC50 of 0.281 nM.

B3 yielded an IC50 of 0.773 nM.

A further assay addresses T2, human IL6R expressed on cell surface. The experiment in a line: cell-based binding FACS on U266 cells. This is another data set of the same source. As to the method: as §2
For the cell-based binding FACS, R-Phycoerythrin AffiniPure Goat Anti-human IgG Fcγ fragment specific (Jackson ImmunoResearch Laboratories, Inc., Cat #109-115-098) was used instead of R-Phycoerythrin AffiniPure F(ab′)₂ Fragment Goat Anti-Mouse IgG (H+L), 1:1000 dilution in FACS buffer, 100 μl/well.
Take B8: the response was half-maximal at 0.417 nM (EC50).

With B6, the EC50 is 0.298 nM.

Take B7: the half-maximal effective concentration (EC50) was 0.301 nM.

Take B3: the EC50 came out at 1.76 nM.

The next assay shares this target. The experiment in a line: cell-based binding FACS on U266 cells. This is another data set of the same source. As to the method: as §2
As for B9, the half-maximal effective concentration (EC50) is 0.391 nM.

Turning to B10, a half-maximal effect (EC50) was put at 0.304 nM.

Molecule B7 showed a concentration giving a half-maximal response (EC50) of 0.246 nM.

B11 came in with a concentration giving a half-maximal response (EC50) of 0.274 nM.

Molecule B3 showed a concentration giving a half-maximal response (EC50) of 1.64 nM.

Another assay deals with T1, human IL6R-Fc protein. As to the kind of experiment: ligand blocking ELISA: antibody pre-incubated with biotin-labeled human IL6R-Fc, added to plate-coated human IL6 (blocked ligand: human IL6). The source holds these as a separate data set. As to the method: as §1
On to B4, for which the midpoint of inhibition, the IC50, lay at 0.807 nM.

In the case of B5, the concentration for half-maximal inhibition (IC50) is 0.697 nM.

B3: the IC50 worked out at 2.33 nM.

Values taken from US20230167182A1 (BIOSION, published 2023).
